Publication PMC3873893

Molecular target: GST-WWCA (bovine N-WASP WWCA, A403-D505) (bovine) (UniProt Q95107)
Sequence of UniProt Q95107 (Q95107 403-505): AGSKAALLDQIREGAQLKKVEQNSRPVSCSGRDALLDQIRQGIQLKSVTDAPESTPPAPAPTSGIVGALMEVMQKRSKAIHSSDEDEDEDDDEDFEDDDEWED

## rabbit skeletal muscle actin (Mg-ATP actin; filament barbed ends) (from UniProt P68135 1-377) (natural protein)
  barbed-end rate of filaments tethered to WWCA nanofibers, 1 μM actin, 1 mM Mg^2+: 21.4 subunits/s
